# Source: US9279107B2, “Simplified basic media for human pluripotent cell culture” (WISCONSIN ALUMNI RESEARCH FOUNDATION, priority 2010, dated 2016)
# B1: FGF4: FGF family member growth factor (protein, UniProt P08620 31-206, looked up)
# Fibroblast growth factor 4: APTAPNGTLEAELERRWESLVALSLARLPVAAQPKEAAVQSGAGDYLLGIKRLRRLYCNVGIGFHLQALPDGRIGGAHADTRDSLLELSPVERGVVSIFGVASRFFVAMSSKGKLYGSPFFTDECTFKEILLPNNYNAYESYKYPGMFIALSKNGKTKKGNRVSPTMKVTHFLPRL
# B2: NODAL (protein, UniProt Q96S42 238-347, looked up)
# Nodal homolog: HHLPDRSQLCRKVKFQVDFNLIGWGSWIIYPKQYNAYRCEGECPNPVGEEFHPTNHAYIQSLLKRYQPHRVPSTCCAPVKTKPLSMLYVDNGRVLLDHHKDMIVEECGCL
# notes: recombinant protein of the TGF-β pathway
# B3: FGF6: FGF family member growth factor (protein, UniProt P10767 38-208, looked up)
# Fibroblast growth factor 6: SPAGTRANNTLLDSRGWGTLLSRSRAGLAGEIAGVNWESGYLVGIKRQRRLYCNVGIGFHLQVLPDGRISGTHEENPYSLLEISTVERGVVSLFGVRSALFVAMNSKGRLYATPSFQEECKFRETLLPNNYNAYESDLYQGTYIALSKYGRVKRGSKVSPIMTVTHFLPRI
# Legend:
# foreskin cells = test: Foreskin cell growth in DF5SFe-based media; parameters: species or system human; conditions: individual FGF added at 100 ng/ml for 96 h to DF5SFe minus FGF
# Procedure: To determine growth factors that can help primary foreskin cell growth, individual growth factors contained in FBS were tested. The FGF family of growth factors has several members, one or more of which is commonly used for fibroblast culture. DF5SFe contains 100 ng/ml zebrafish recombinant FGF2. Each FGF family member was tested for its ability to support foreskin cell growth. Foreskin cells were aliquoted into the well of culture plates and incubated for 24 hours in DF5SFe minus FGF. Individual FGF types were added at 100 ng/ml for 96 h.
# H1 cells [1] = test: NANOG mRNA expression; type: cell-based, human; conditions: added to DF5S; NODAL 100 ng/ml or TGF-β 2 ng/ml; compared to DF5S
# Excerpt: DF5S was used to expand H1 cells. Cells grown in DF5S were more prone to differentiate than cells grown in TeSR™. However, H1 cells could be grown for several weeks (more than 15 passages), during which the cells maintained human ES cell morphology and high levels of OCT4 expression (FIG. 1E, FIG. 1F). […] DF5S+NODAL also supported pluripotency of the two tested human iPS cell lines, as determined by high expression of the pluripotency marker OCT4. All cells (hES cells and iPS cells) grown in DF5S with either NODAL or TGF-β maintained a normal karyotype after long-term passage.
# H1 cells [2] = test: Oct4 expression by flow cytometry as indicator of pluripotency; type: cell-based, human; conditions: DF5SFe supplemented with NODAL at TeSR concentration
# Procedure: As described in Example 3, human pluripotent cells, such as H1, H9, and iPS cells, could be grown and passaged over 15 times in DF5S but were prone to differentiate, such that extra care is needed to sustain pluripotency in DF5S. Because pluripotency could be maintained more easily in TeSR™, growth factors present in TeSR™ were added individually to DF5SFe used to grow H1 cells that were previously cultured in DF5S without differentiating to identify factors supporting long-term pluripotency. Cells were passaged approximately one day after reaching confluency, facilitating cell differentiation, and Oct4 expression, assessed by flow cytometry, was used as indicator of pluripotency.
# Human pluripotent cells grown in DF5SFe elongated and lined up along each other, resembling a “spindle” shape just prior to differentiation. […] Thus, recombinant proteins of the TGF-β pathway were tested for their ability to support long-term pluripotency.
# iPS cells = test: Long-term pluripotency of lentiviral iPS cell lines; type: cell-based, human; conditions: added to DF5SFe; TGF-β 2 ng/ml or NODAL 100 ng/ml
# Excerpt: Human ES cell lines, such as H1 and H9 have a culture history that includes exposure to various complex culture components, such as FBS, feeder cells, and knockout serum replacer. Exposure to these components could conceivably create dependency on these components and, consequently, alter cellular response to simplified media. Culture history might play a lesser role for iPS cells, derived from reprogrammed somatic cells, as derivation conditions are less complex. Therefore, different factors were tested with two original lentiviral iPS cell lines (Yu, et al., Science 318:1917 (2007)) grown in DF5SFe. Cells were transferred from MEF plates directly into DF5SFe medium for one passage and then passaged into various growth factor conditions. […] Pluripotency surface markers SSEA4, SSEA3, Tra-1-60, and Tra-1-81 were also expressed. Cells with normal karyotypes were continuously maintained for more than 20 passages. The cells were capable of forming teratomas 5-7 weeks after injection into severe combined immunodeficient (SCID) mice.
Molecule,foreskin cell growth (foreskin cells),NANOG mRNA level (H1 cells [1]),Oct4 expression (H1 cells [2]),long-term pluripotency (iPS cells)
B1,supported foreskin cell growth most effectively,–,–,–
B2,–,significantly higher levels of NANOG mRNA,sustained high Oct4 expression,supported long-term pluripotency of iPS cells
B3,supported foreskin cell growth most effectively,–,–,–
